Assay [1] concerns the target T1, full-length human KIF5B, C-terminal mScarlet-StrepII (human), P33176.
T1 chain: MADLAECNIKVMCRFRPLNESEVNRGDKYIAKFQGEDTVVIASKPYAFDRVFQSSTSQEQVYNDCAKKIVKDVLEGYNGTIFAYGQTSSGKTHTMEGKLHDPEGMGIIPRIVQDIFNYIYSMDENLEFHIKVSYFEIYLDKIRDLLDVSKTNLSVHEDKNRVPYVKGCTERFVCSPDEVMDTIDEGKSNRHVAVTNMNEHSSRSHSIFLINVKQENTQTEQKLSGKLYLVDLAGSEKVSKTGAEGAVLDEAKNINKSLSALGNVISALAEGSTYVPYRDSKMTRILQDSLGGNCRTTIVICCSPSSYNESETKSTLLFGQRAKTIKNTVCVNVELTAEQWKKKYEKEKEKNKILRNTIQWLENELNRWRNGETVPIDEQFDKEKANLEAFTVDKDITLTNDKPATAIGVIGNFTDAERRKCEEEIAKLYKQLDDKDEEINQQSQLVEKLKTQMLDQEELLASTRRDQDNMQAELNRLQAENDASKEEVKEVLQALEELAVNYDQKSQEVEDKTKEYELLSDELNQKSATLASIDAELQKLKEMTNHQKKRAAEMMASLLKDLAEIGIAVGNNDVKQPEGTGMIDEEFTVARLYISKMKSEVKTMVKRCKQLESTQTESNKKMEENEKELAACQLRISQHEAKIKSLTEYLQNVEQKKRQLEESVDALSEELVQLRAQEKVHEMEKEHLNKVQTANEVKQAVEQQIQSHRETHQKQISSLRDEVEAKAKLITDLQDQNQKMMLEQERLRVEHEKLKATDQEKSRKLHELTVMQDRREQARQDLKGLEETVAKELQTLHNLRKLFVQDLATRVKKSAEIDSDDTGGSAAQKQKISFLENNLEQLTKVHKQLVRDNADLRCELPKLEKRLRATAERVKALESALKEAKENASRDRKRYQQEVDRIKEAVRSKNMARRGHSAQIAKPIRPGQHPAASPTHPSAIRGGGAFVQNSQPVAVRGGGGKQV
The assay is described as follows: SEC-MALS. Particulars: remark: other sources report otherwise.

Assay [2] has as its target T2, full-length human KIF5A, C-terminal mScarlet-StrepII (human), Q12840.
T2 chain: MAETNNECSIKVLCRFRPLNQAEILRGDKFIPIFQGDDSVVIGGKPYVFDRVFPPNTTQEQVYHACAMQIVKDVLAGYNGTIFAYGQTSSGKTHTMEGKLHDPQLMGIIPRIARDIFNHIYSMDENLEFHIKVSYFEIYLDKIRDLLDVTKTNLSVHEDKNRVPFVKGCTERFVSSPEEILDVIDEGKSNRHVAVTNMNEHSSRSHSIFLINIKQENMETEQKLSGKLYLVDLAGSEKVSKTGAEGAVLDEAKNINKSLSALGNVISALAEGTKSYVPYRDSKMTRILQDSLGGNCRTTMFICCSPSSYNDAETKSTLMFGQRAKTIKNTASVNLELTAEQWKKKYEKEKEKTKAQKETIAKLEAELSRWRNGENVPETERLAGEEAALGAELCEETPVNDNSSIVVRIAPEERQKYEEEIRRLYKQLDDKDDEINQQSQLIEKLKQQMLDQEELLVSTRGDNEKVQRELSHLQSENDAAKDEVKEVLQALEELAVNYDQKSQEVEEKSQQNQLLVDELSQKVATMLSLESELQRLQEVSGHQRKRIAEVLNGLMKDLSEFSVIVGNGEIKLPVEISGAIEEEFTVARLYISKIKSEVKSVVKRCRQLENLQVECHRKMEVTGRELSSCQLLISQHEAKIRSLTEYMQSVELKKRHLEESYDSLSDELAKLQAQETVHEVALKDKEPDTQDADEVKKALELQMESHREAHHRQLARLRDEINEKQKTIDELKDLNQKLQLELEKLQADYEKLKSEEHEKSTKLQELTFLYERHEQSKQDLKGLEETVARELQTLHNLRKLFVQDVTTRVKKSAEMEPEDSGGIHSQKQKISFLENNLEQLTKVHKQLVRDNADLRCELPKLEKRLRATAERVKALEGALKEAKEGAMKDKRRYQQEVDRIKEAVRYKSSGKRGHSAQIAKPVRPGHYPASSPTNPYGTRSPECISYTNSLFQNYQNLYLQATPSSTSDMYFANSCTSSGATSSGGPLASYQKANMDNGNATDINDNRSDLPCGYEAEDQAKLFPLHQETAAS
Briefly: SEC-MALS. Particulars: remark: other sources report otherwise.

B1: full-length human KIF5B, C-terminal mScarlet-StrepII, P33176 1-963 (natural protein)
chain: MADLAECNIKVMCRFRPLNESEVNRGDKYIAKFQGEDTVVIASKPYAFDRVFQSSTSQEQVYNDCAKKIVKDVLEGYNGTIFAYGQTSSGKTHTMEGKLHDPEGMGIIPRIVQDIFNYIYSMDENLEFHIKVSYFEIYLDKIRDLLDVSKTNLSVHEDKNRVPYVKGCTERFVCSPDEVMDTIDEGKSNRHVAVTNMNEHSSRSHSIFLINVKQENTQTEQKLSGKLYLVDLAGSEKVSKTGAEGAVLDEAKNINKSLSALGNVISALAEGSTYVPYRDSKMTRILQDSLGGNCRTTIVICCSPSSYNESETKSTLLFGQRAKTIKNTVCVNVELTAEQWKKKYEKEKEKNKILRNTIQWLENELNRWRNGETVPIDEQFDKEKANLEAFTVDKDITLTNDKPATAIGVIGNFTDAERRKCEEEIAKLYKQLDDKDEEINQQSQLVEKLKTQMLDQEELLASTRRDQDNMQAELNRLQAENDASKEEVKEVLQALEELAVNYDQKSQEVEDKTKEYELLSDELNQKSATLASIDAELQKLKEMTNHQKKRAAEMMASLLKDLAEIGIAVGNNDVKQPEGTGMIDEEFTVARLYISKMKSEVKTMVKRCKQLESTQTESNKKMEENEKELAACQLRISQHEAKIKSLTEYLQNVEQKKRQLEESVDALSEELVQLRAQEKVHEMEKEHLNKVQTANEVKQAVEQQIQSHRETHQKQISSLRDEVEAKAKLITDLQDQNQKMMLEQERLRVEHEKLKATDQEKSRKLHELTVMQDRREQARQDLKGLEETVAKELQTLHNLRKLFVQDLATRVKKSAEIDSDDTGGSAAQKQKISFLENNLEQLTKVHKQLVRDNADLRCELPKLEKRLRATAERVKALESALKEAKENASRDRKRYQQEVDRIKEAVRSKNMARRGHSAQIAKPIRPGQHPAASPTHPSAIRGGGAFVQNSQPVAVRGGGGKQV
In turn, B1 displayed a stoichiometry N in assay [1] of 2.

B2: full-length human KIF5A, C-terminal mScarlet-StrepII, Q12840 1-1032 (natural protein)
chain: MAETNNECSIKVLCRFRPLNQAEILRGDKFIPIFQGDDSVVIGGKPYVFDRVFPPNTTQEQVYHACAMQIVKDVLAGYNGTIFAYGQTSSGKTHTMEGKLHDPQLMGIIPRIARDIFNHIYSMDENLEFHIKVSYFEIYLDKIRDLLDVTKTNLSVHEDKNRVPFVKGCTERFVSSPEEILDVIDEGKSNRHVAVTNMNEHSSRSHSIFLINIKQENMETEQKLSGKLYLVDLAGSEKVSKTGAEGAVLDEAKNINKSLSALGNVISALAEGTKSYVPYRDSKMTRILQDSLGGNCRTTMFICCSPSSYNDAETKSTLMFGQRAKTIKNTASVNLELTAEQWKKKYEKEKEKTKAQKETIAKLEAELSRWRNGENVPETERLAGEEAALGAELCEETPVNDNSSIVVRIAPEERQKYEEEIRRLYKQLDDKDDEINQQSQLIEKLKQQMLDQEELLVSTRGDNEKVQRELSHLQSENDAAKDEVKEVLQALEELAVNYDQKSQEVEEKSQQNQLLVDELSQKVATMLSLESELQRLQEVSGHQRKRIAEVLNGLMKDLSEFSVIVGNGEIKLPVEISGAIEEEFTVARLYISKIKSEVKSVVKRCRQLENLQVECHRKMEVTGRELSSCQLLISQHEAKIRSLTEYMQSVELKKRHLEESYDSLSDELAKLQAQETVHEVALKDKEPDTQDADEVKKALELQMESHREAHHRQLARLRDEINEKQKTIDELKDLNQKLQLELEKLQADYEKLKSEEHEKSTKLQELTFLYERHEQSKQDLKGLEETVARELQTLHNLRKLFVQDVTTRVKKSAEMEPEDSGGIHSQKQKISFLENNLEQLTKVHKQLVRDNADLRCELPKLEKRLRATAERVKALEGALKEAKEGAMKDKRRYQQEVDRIKEAVRYKSSGKRGHSAQIAKPVRPGHYPASSPTNPYGTRSPECISYTNSLFQNYQNLYLQATPSSTSDMYFANSCTSSGATSSGGPLASYQKANMDNGNATDINDNRSDLPCGYEAEDQAKLFPLHQETAAS
In turn, B2 yielded a stoichiometry N in assay [2] of 2.

(Values after doi:10.1101/2021.03.12.434960.)
